The series deals with the molecule itself. Description: negative stain TEM.

B1: IsiA protein of Synechocystis sp. PCC 6803 (natural protein)
chain: not shown
The term stoichiometry N denotes a count of units in the complex or per binding partner. Take B1: the “stoichiometry N” value is 18.

(Values after PMC6699766 (Nature plants, 2019).)
